In article PMC5974431:
Substitutions are numbered along the chain they refer to. Names may count otherwise.

T1: V1-TRF2, Q15554
T1 chain: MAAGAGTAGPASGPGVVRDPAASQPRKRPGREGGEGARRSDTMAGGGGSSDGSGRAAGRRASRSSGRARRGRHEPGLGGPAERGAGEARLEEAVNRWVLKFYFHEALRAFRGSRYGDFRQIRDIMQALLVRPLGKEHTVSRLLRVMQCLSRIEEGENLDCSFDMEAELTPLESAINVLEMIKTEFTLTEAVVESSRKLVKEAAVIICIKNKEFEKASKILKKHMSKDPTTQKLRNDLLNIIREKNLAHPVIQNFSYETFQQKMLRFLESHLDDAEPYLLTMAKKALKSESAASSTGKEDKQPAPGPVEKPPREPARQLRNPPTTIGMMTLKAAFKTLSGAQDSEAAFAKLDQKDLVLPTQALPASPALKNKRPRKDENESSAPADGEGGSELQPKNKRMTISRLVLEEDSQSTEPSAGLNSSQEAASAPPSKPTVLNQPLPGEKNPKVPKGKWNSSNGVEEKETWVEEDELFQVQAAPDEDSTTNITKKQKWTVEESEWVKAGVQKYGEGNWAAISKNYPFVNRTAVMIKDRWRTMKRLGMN

B1: TIN2L-V2, Q9BSI4-1 R282H (protein)
chain: MATPLVAGPAALRFAAAASWQVVRGRCVEHFPRVLEFLRSLRAVAPGLVRYRHHERLCMGLKAKVVVELILQGRPWAQVLKALNHHFPESGPIVRDPKATKQDLRKILEAQETFYQQVKQLSEAPVDLASKLQELEQEYGEPFLAAMEKLLFEYLCQLEKALPTPQAQQLQDVLSWMQPGVSITSSLAWRQYGVDMGWLLPECSVTDSVNLAEPMEQNPPQQQRLALHNPLPKAKPGTHLPQGPSSRTHPEPLAGRHFNLAPLGRRRVQSQWASTRGGHKEHPTVMLFPFRNLGSPTQVISKPESKEEHAIYTADLAMGTRAASTGKSKSPCQTLGGRALKENPVDLPATEQKENCLDCYMDPLRLSLLPPRARKPVCPPSLCSSVITIGDLVLDSDEEENGQGEGKESLENYQKTKFDTLIPTLCEYLPPSGHGAIPVSSCDCRDSSRPL
B2: TIN2L-V2, Q9BSI4-1 D391K; D395K (protein)
chain: B1 chain with H282R, D391K, D395K

Target: T1, V1-TRF2, Q15554
Experiment: protein fragment complementation assay (PCA), split Venus
Settings: chain shown with the change; coexpression by cotransfection; three separate transfections each measured in triplicate; parent: est. 12500; read off a plot

Binder | response (fluorescence activity minus background)
B1 | 5900
B2 | 5700
